Experimental data as given in the supplement of paper PMC12764529.
± gives the half width of the 95% confidence interval.

How the values were obtained:
[1] = folding stability dG unfold from trypsin proteolysis; higher = more stable
How it was run: (§1)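 Unfolding free energy was derived, per protease or combined, by relating Bayesian-fitted K50 values from sequencing counts to a sequence-predicted unfolded-state K50 and a shared folded-state K50. The underlying digests exposed cysteine-free mini-proteins under 80 residues, in a PA-tagged cDNA display construct, to trypsin and chymotrypsin at 11 threefold-diluted concentrations and to a no-protease condition. A filter kept only designs with AlphaFold2 dimer inter-PAE above 15.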

[2] = folding stability dG unfold from chymotrypsin proteolysis; higher = more stable
How it was run: as §1

[3] = folding stability dG unfold (combined trypsin and chymotrypsin); higher = more stable
How it was run: as §1

| Sequence | folding stability dG unfold [1] | folding stability dG unfold [2] | folding stability dG unfold [3] |
| --- | --- | --- | --- |
| SAGGSAGGSAGSFTVLVTEVLDPDDPLYLKLQKELGLPPENIVRFKLYTFSSPEEVKKKISAGGSAGGSAGG [r11_83_TrMRF] | 0.923 ± 0.035 kcal/mol | 1.99 ± 0.13 kcal/mol | 1.5 ± 0.065 kcal/mol |
| SAGGSAGGSAGSISRTATPDGYLYTFTDSSGKTHTIPSPVPGMPLSEVAERARAAGFSTVESSAGGSAGGSA [r18_83_JUSTAS] | -0.188 ± 0.12 kcal/mol | 0.968 ± 0.065 kcal/mol | 0.618 ± 0.08 kcal/mol |
| SAGGSAGGSAGSKKAVIGGDGATVTYYPPLGYALVTFPDGTAALVDLKTGEIVEIAKTNDSAGGSAGGSAGG [r11_149_TrMRF] | 1.04 ± 0.059 kcal/mol | 2.29 ± 0.037 kcal/mol | 2 ± 0.11 kcal/mol |
| SAGGSAGGSAGSLTLVSTSSDETEEPVVRYREVYAGPVPVRVTAEESLENPGNPRLRVVLSAGGSAGGSAGG [r11_618_JUSTAS] | -0.53 ± 0.22 kcal/mol | -0.275 ± 0.39 kcal/mol | -0.251 ± 0.14 kcal/mol |
| SAGGSAGGSAGSMEEALAAELRARGGVAVEIERIHVPSELAPGTKLPADEVLIRVTARPAASAGGSAGGSAG [r3_229_JUSTAS] | -0.139 ± 0.46 kcal/mol | 0.683 ± 0.12 kcal/mol | 0.525 ± 0.17 kcal/mol |
| SAGGSAGGSAGSMKTLVTTETSTVPGTTTTVTTTTTTTYDPTSSETTTTTTPVTNPAPAASAGGSAGGSAGG [r17_309_JUSTAS] | -0.827 ± 0.28 kcal/mol | 1.05 ± 0.02 kcal/mol | 0.711 ± 0.071 kcal/mol |
| SAGGSAGGSAGSMQTEVTFERGPGRLTTTTTTKFPDNRWSTTTSTSPVPARPPLPPAPVLLSAGGSAGGSAG [r3_68_JUSTAS] | -0.817 ± 0.52 kcal/mol | -0.709 ± 0.94 kcal/mol | -0.416 ± 0.22 kcal/mol |
| SAGGSAGGSAGSMSTPRSSEKMEKDGGGETLVRTLTYPEPSLTRTVRTPPDGSSSSSTSAPSAGGSAGGSAG [r3_28_JUSTAS] | -0.452 ± 0.37 kcal/mol | 0.54 ± 0.11 kcal/mol | 0.235 ± 0.2 kcal/mol |
| SAGGSAGGSAGSMTITRTLPGLTVTFTRLPDPNKETITFKLGDKWTTVPASTLSSSVISLSAGGSAGGSAGG [r11_152_JUSTAS] | -0.434 ± 0.38 kcal/mol | -0.142 ± 0.34 kcal/mol | -0.14 ± 0.21 kcal/mol |
| SAGGSAGGSAGSMVSVEVEESELPPPYRLVTEKVSLPGSETVIEVVRDPATGEVLETKVFASSAGGSAGGSA [r18_507_JUSTAS] | 3.77 ± 0.28 kcal/mol | 3.33 ± 0.25 kcal/mol | 3.36 ± 0.59 kcal/mol |
| SAGGSAGGSAGSMVTKTTTVEEKIGPGNLKLVKEKITIYDPSTGKPIKEETKITIEPVLLSAGGSAGGSAGG [r17_317_JUSTAS] | -0.493 ± 0.16 kcal/mol | 0.452 ± 0.24 kcal/mol | 0.148 ± 0.38 kcal/mol |
| SAGGSAGGSAGSPLEEALAEARATGGPVTIRLPDGSEVVITVTEDEGELRVEVRSAAELGSAGGSAGGSAGG [r17_463_JUSTAS] | 0.99 ± 0.027 kcal/mol | 0.911 ± 0.042 kcal/mol | 1 ± 0.099 kcal/mol |
| SAGGSAGGSAGSTILIKNEDGSLLLVTVSDGSITIERLPPAPPPKTYEKDPETKEWREVTSAGGSAGGSAGG [r11_590_TrROS_Hall] | 1.06 ± 0.021 kcal/mol | 0.647 ± 0.063 kcal/mol | 0.878 ± 0.057 kcal/mol |
| SAGGSAGGSAGSTITIRINGKTYTIEVDESEEEALERIRELARALLPEGEVEVTVERREPSAGGSAGGSAGG [r11_1028_TrROS_Hall] | 2.2 ± 0.047 kcal/mol | 3.374 ± 0.026 kcal/mol | 2.98 ± 0.079 kcal/mol |
| SAGGSAGGSAGSTLTVTLTVRDPANPGTTTTVTLTLEVEPAPPPEVVVVKDANGNETLVPSAGGSAGGSAGG [r11_419_TrROS_Hall] | 1.29 ± 0.047 kcal/mol | 1.91 ± 0.052 kcal/mol | 1.63 ± 0.061 kcal/mol |
| SAGGSAGGSAGSYTVEPVELDDDSTLIRYTYPTDPNAVFPVVTVYPDGPVLTEPVVYSSSSAGGSAGGSAGG [r11_747_JUSTAS] | 0.271 ± 0.037 kcal/mol | 0.0377 ± 0.11 kcal/mol | 0.244 ± 0.091 kcal/mol |
| SAGGSAGGSAGTATLTDPNGVRIEVFPDGTVRATVYRPDPSTGEWKLAATFTFPLHPDAFSAGGSAGGSAGG [r11_497_TrMRF] | 1.72 ± 0.027 kcal/mol | 2 ± 0.067 kcal/mol | 1.94 ± 0.066 kcal/mol |
| SAGGSAGGSAGTIENVTVVGSKEFTAPGGVPTLIEYAKLPDGGTYTVTWTGDTTTTTVFPSAGGSAGGSAGG [r17_294_JUSTAS] | 0.414 ± 0.021 kcal/mol | 0.675 ± 0.14 kcal/mol | 0.624 ± 0.069 kcal/mol |
